According to patent publication US20180066070:

B1: Sirtuin (silent mating type information regulation 2 homolog) 1 (protein)
chain: MADEAALALQPGGSPSAAGADREAASSPAGEPLRKRPRRDGPGLERSPGEPGGAAPEREVPAAARGCPGAAAAALWREAEAEAAAAGGEQEAQATAAAGEGDNGPGLQGPSREPPLADNLYDEDDDDEGEEEEEAAAAAIGYRDNLLFGDEIITNGFHSCESDEEDRASHASSSDWTPRPRIGPYTFVQQHLMIGTDPRTILKDLLPETIPPPELDDMTLWQIVINILSEPPKRKKRKDINTIEDAVKLLQECKKIIVLTGAGVSVSCGIPDFRSRDGIYARLAVDFPDLPDPQAMFDIEYFRKDPRPFFKFAKEIYPGQFQPSLCHKFIALSDKEGKLLRNYTQNIDTLEQVAGIQRIIQCHGSFATASCLICKYKVDCEAVRGDIFNQVVPRCPRCPADEPLAIMKPEIVFFGENLPEQFHRAMKYDKDEVDLLIVIGSSLKVRPVALIPSSIPHEVPQILINREPLPHLHFDVELLGDCDVIINELCHRLGGEYAKLCCNPVKLSEITEKPPRTQKELAYLSELPPTPLHVSEDSSSPERTSPPDSSVIVTLLDQAAKSNDDLDVSESKGCMEEKPQEVQTSRNVESIAEQMENPDLKNVGSSTGEKNERTSVAGTVRKCWPNRVAKEQISRRLDGNQYLFLPPNRYIFHGAEVYSDSEDDVLSSSSCGSNSDSGTCQSPSLEEPMEDESEIEEFYNGLEDEPDVPERAGGAGFGTDGDDQEAINEAISVKQEVTDMNYPSNKS
- increase in fluorescence caused by deacetylation of fluorogenic PCSK9 peptide (acetyl-PCSK9-AMC peptide): SIRT1 deacetylates fluorogenic PCSK9 peptide
- deacetylation in vitro (SDS-PAGE, blots for acetyl-lysine and PCSK9) (Recombinant PCSK9): PCSK9 is deacetylated by SIRT1 in vitro
